Literature values as cited in paper PMC3089658.

Molecular target: CD25 (Homo sapiens) (UniProt P01589)
Chain of UniProt P01589 (P01589 22-240): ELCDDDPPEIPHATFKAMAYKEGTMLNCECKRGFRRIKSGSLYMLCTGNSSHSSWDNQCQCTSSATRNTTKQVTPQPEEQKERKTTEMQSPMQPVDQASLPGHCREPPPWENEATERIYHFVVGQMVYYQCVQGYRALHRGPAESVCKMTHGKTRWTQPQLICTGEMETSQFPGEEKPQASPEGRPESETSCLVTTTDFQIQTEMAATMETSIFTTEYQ

Kd: 10 nM
Substance: IL-2 (from UniProt P60568)
